Test results: paper PMC11488661 (Science immunology, 2024)

Biological target: T1, eOD-GT8 (monomeric ligand) (Human immunodeficiency virus 1, …)
T1 construct: also called eOD-GT8 ligand; GT8-prime ligand
Experiment: SPR; Carterra LSA; kinetics and affinity of antibody–antigen interactions, methods as in Cottrell et al. (ref. 56); who was immobilised is not told (the antigens are called ligands); values for groups are geometric means over the mAbs
Conditions: both partners purified

B1: CLK21 germline (GL) mAb (antibody, V domains shown)
VH: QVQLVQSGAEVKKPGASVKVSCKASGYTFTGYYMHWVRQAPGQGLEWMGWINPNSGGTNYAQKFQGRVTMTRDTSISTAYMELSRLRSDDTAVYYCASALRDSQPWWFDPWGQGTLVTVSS
VL: DIQMTQSPSTLSASVGDRVTITCRASQSISSWLAWYQQKPGKAPKLLIYKASSLESGVPSRFSGSGSGTEFTLTISSLQPDDFATYYCQQYGTFGGGTKVEIK
Kd: 0.44 µM
